The values below come from patent publication US12679878B2, “CRF2 receptor agonists and their use in therapy” (SANOFI, priority 2020, dated 2026).

Starred links: 1 amine or outer side, 2 acyl side, 3 side chain; linkers in the order of their positions; H or OH if unused. Non-standard residues stand in square brackets, D forms with d. Groups on a side chain read outwards from the residue. No end group written: not given here. *: point of attachment. C18 diacid = O=C(O)CCCCCCCCCCCCCCCCC(=O)*; γGlu = O=C(O)[C@H](CCC(=O)[*:2])N[*:1]; AEEA = NCCOCCOCC(=O)O; Aib = CC(C)(N)C(=O)O

The target of the assay is human corticotropin-releasing factor 2α (CRF2 α receptor) (human), Q13324. The assay is described as follows: cell-based or functional assay.
Chain of human corticotropin-releasing factor 2α (CRF2 α receptor) (human), Q13324 (Q13324 20-411): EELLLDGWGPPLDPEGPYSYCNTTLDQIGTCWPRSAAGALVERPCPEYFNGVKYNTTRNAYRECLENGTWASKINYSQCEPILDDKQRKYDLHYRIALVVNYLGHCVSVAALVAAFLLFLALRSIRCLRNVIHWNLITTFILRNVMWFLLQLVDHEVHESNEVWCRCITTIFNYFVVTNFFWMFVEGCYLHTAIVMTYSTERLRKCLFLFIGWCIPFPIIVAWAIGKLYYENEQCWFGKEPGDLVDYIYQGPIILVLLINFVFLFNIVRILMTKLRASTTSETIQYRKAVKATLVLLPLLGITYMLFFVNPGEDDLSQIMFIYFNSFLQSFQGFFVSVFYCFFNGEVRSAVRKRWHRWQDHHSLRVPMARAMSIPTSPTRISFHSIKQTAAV

B1: SEQ ID NO: 90 (peptide)
peptide: IVLSLDVPIKLK([AEEA-AEEA-γGlu-C18 diacid])QILLKQERQKKQREKAKTNVQILAQV-NH2
modifications: N-terminus assumed
SMILES: CC[C@H](C)[C@H](N)C(=O)N[C@H](C(=O)N[C@@H](CC(C)C)C(=O)N[C@@H](CO)C(=O)N[C@@H](CC(C)C)C(=O)N[C@@H](CC(=O)O)C(=O)N[C@H](C(=O)N1CCC[C@H]1C(=O)N[C@H](C(=O)N[C@@H](CCCCN)C(=O)N[C@@H](CC(C)C)C(=O)N[C@@H](CCCCNC(=O)COCCOCCNC(=O)COCCOCCNC(=O)CC[C@H](NC(=O)CCCCCCCCCCCCCCCCC(=O)O)C(=O)O)C(=O)N[C@@H](CCC(N)=O)C(=O)N[C@H](C(=O)N[C@@H](CC(C)C)C(=O)N[C@@H](CC(C)C)C(=O)N[C@@H](CCCCN)C(=O)N[C@@H](CCC(N)=O)C(=O)N[C@@H](CCC(=O)O)C(=O)N[C@@H](CCCNC(=N)N)C(=O)N[C@@H](CCC(N)=O)C(=O)N[C@@H](CCCCN)C(=O)N[C@@H](CCCCN)C(=O)N[C@@H](CCC(N)=O)C(=O)N[C@@H](CCCNC(=N)N)C(=O)N[C@@H](CCC(=O)O)C(=O)N[C@@H](CCCCN)C(=O)N[C@@H](C)C(=O)N[C@@H](CCCCN)C(=O)N[C@H](C(=O)N[C@@H](CC(N)=O)C(=O)N[C@H](C(=O)N[C@@H](CCC(N)=O)C(=O)N[C@H](C(=O)N[C@@H](CC(C)C)C(=O)N[C@@H](C)C(=O)N[C@@H](CCC(N)=O)C(=O)N[C@H](C(N)=O)C(C)C)[C@@H](C)CC)C(C)C)[C@@H](C)O)[C@@H](C)CC)[C@@H](C)CC)C(C)C)C(C)C
B1 displayed an EC50 [nM], 0% HSA of 3.91 nM and an EC50 [nM], 0.1% HSA of 92.6 nM.

B2: SEQ ID NO: 94 (peptide)
peptide: IVLSLDVPIKLK([AEEA-AEEA-γGlu-C18 diacid])KILLKQERQKKEREQAETNKQILAQV-NH2
modifications: N-terminus assumed
SMILES: CC[C@H](C)[C@H](N)C(=O)N[C@H](C(=O)N[C@@H](CC(C)C)C(=O)N[C@@H](CO)C(=O)N[C@@H](CC(C)C)C(=O)N[C@@H](CC(=O)O)C(=O)N[C@H](C(=O)N1CCC[C@H]1C(=O)N[C@H](C(=O)N[C@@H](CCCCN)C(=O)N[C@@H](CC(C)C)C(=O)N[C@@H](CCCCNC(=O)COCCOCCNC(=O)COCCOCCNC(=O)CC[C@H](NC(=O)CCCCCCCCCCCCCCCCC(=O)O)C(=O)O)C(=O)N[C@@H](CCCCN)C(=O)N[C@H](C(=O)N[C@@H](CC(C)C)C(=O)N[C@@H](CC(C)C)C(=O)N[C@@H](CCCCN)C(=O)N[C@@H](CCC(N)=O)C(=O)N[C@@H](CCC(=O)O)C(=O)N[C@@H](CCCNC(=N)N)C(=O)N[C@@H](CCC(N)=O)C(=O)N[C@@H](CCCCN)C(=O)N[C@@H](CCCCN)C(=O)N[C@@H](CCC(=O)O)C(=O)N[C@@H](CCCNC(=N)N)C(=O)N[C@@H](CCC(=O)O)C(=O)N[C@@H](CCC(N)=O)C(=O)N[C@@H](C)C(=O)N[C@@H](CCC(=O)O)C(=O)N[C@H](C(=O)N[C@@H](CC(N)=O)C(=O)N[C@@H](CCCCN)C(=O)N[C@@H](CCC(N)=O)C(=O)N[C@H](C(=O)N[C@@H](CC(C)C)C(=O)N[C@@H](C)C(=O)N[C@@H](CCC(N)=O)C(=O)N[C@H](C(N)=O)C(C)C)[C@@H](C)CC)[C@@H](C)O)[C@@H](C)CC)[C@@H](C)CC)C(C)C)C(C)C
For the molecule B2, the EC50 [nM], 0% HSA was 1.73 nM and the EC50 [nM], 0.1% HSA stood at 49.1 nM.

B3: SEQ ID NO: 92 (peptide)
peptide: IVLSLDVPIKLK([AEEA-AEEA-γGlu-C18 diacid])QKLLEQERQKKQREQAETN[Aib]QILAQV-NH2
modifications: N-terminus assumed
SMILES: CC[C@H](C)[C@H](N)C(=O)N[C@H](C(=O)N[C@@H](CC(C)C)C(=O)N[C@@H](CO)C(=O)N[C@@H](CC(C)C)C(=O)N[C@@H](CC(=O)O)C(=O)N[C@H](C(=O)N1CCC[C@H]1C(=O)N[C@H](C(=O)N[C@@H](CCCCN)C(=O)N[C@@H](CC(C)C)C(=O)N[C@@H](CCCCNC(=O)COCCOCCNC(=O)COCCOCCNC(=O)CC[C@H](NC(=O)CCCCCCCCCCCCCCCCC(=O)O)C(=O)O)C(=O)N[C@@H](CCC(N)=O)C(=O)N[C@@H](CCCCN)C(=O)N[C@@H](CC(C)C)C(=O)N[C@@H](CC(C)C)C(=O)N[C@@H](CCC(=O)O)C(=O)N[C@@H](CCC(N)=O)C(=O)N[C@@H](CCC(=O)O)C(=O)N[C@@H](CCCNC(=N)N)C(=O)N[C@@H](CCC(N)=O)C(=O)N[C@@H](CCCCN)C(=O)N[C@@H](CCCCN)C(=O)N[C@@H](CCC(N)=O)C(=O)N[C@@H](CCCNC(=N)N)C(=O)N[C@@H](CCC(=O)O)C(=O)N[C@@H](CCC(N)=O)C(=O)N[C@@H](C)C(=O)N[C@@H](CCC(=O)O)C(=O)N[C@H](C(=O)N[C@@H](CC(N)=O)C(=O)NC(C)(C)C(=O)N[C@@H](CCC(N)=O)C(=O)N[C@H](C(=O)N[C@@H](CC(C)C)C(=O)N[C@@H](C)C(=O)N[C@@H](CCC(N)=O)C(=O)N[C@H](C(N)=O)C(C)C)[C@@H](C)CC)[C@@H](C)O)[C@@H](C)CC)C(C)C)C(C)C
For the molecule B3, the EC50 [nM], 0% HSA turned out to be 9.17 nM.

B4: SEQ ID NO: 93 (peptide)
peptide: IVLSLDVPIKLK([AEEA-AEEA-γGlu-C18 diacid])QKLLKQERQKKQREKAKTNVQILAQV-NH2
modifications: N-terminus assumed
SMILES: CC[C@H](C)[C@H](N)C(=O)N[C@H](C(=O)N[C@@H](CC(C)C)C(=O)N[C@@H](CO)C(=O)N[C@@H](CC(C)C)C(=O)N[C@@H](CC(=O)O)C(=O)N[C@H](C(=O)N1CCC[C@H]1C(=O)N[C@H](C(=O)N[C@@H](CCCCN)C(=O)N[C@@H](CC(C)C)C(=O)N[C@@H](CCCCNC(=O)COCCOCCNC(=O)COCCOCCNC(=O)CC[C@H](NC(=O)CCCCCCCCCCCCCCCCC(=O)O)C(=O)O)C(=O)N[C@@H](CCC(N)=O)C(=O)N[C@@H](CCCCN)C(=O)N[C@@H](CC(C)C)C(=O)N[C@@H](CC(C)C)C(=O)N[C@@H](CCCCN)C(=O)N[C@@H](CCC(N)=O)C(=O)N[C@@H](CCC(=O)O)C(=O)N[C@@H](CCCNC(=N)N)C(=O)N[C@@H](CCC(N)=O)C(=O)N[C@@H](CCCCN)C(=O)N[C@@H](CCCCN)C(=O)N[C@@H](CCC(N)=O)C(=O)N[C@@H](CCCNC(=N)N)C(=O)N[C@@H](CCC(=O)O)C(=O)N[C@@H](CCCCN)C(=O)N[C@@H](C)C(=O)N[C@@H](CCCCN)C(=O)N[C@H](C(=O)N[C@@H](CC(N)=O)C(=O)N[C@H](C(=O)N[C@@H](CCC(N)=O)C(=O)N[C@H](C(=O)N[C@@H](CC(C)C)C(=O)N[C@@H](C)C(=O)N[C@@H](CCC(N)=O)C(=O)N[C@H](C(N)=O)C(C)C)[C@@H](C)CC)C(C)C)[C@@H](C)O)[C@@H](C)CC)C(C)C)C(C)C
The molecule B4 returned an EC50 [nM], 0% HSA of 50.9 nM.

B5: SEQ ID NO: 95 (peptide)
peptide: IVLSLDVPIKLK([AEEA-AEEA-γGlu-C18 diacid])QKLLKQERQKKEREQAETNKQILAQV-NH2
modifications: N-terminus assumed
SMILES: CC[C@H](C)[C@H](N)C(=O)N[C@H](C(=O)N[C@@H](CC(C)C)C(=O)N[C@@H](CO)C(=O)N[C@@H](CC(C)C)C(=O)N[C@@H](CC(=O)O)C(=O)N[C@H](C(=O)N1CCC[C@H]1C(=O)N[C@H](C(=O)N[C@@H](CCCCN)C(=O)N[C@@H](CC(C)C)C(=O)N[C@@H](CCCCNC(=O)COCCOCCNC(=O)COCCOCCNC(=O)CC[C@H](NC(=O)CCCCCCCCCCCCCCCCC(=O)O)C(=O)O)C(=O)N[C@@H](CCC(N)=O)C(=O)N[C@@H](CCCCN)C(=O)N[C@@H](CC(C)C)C(=O)N[C@@H](CC(C)C)C(=O)N[C@@H](CCCCN)C(=O)N[C@@H](CCC(N)=O)C(=O)N[C@@H](CCC(=O)O)C(=O)N[C@@H](CCCNC(=N)N)C(=O)N[C@@H](CCC(N)=O)C(=O)N[C@@H](CCCCN)C(=O)N[C@@H](CCCCN)C(=O)N[C@@H](CCC(=O)O)C(=O)N[C@@H](CCCNC(=N)N)C(=O)N[C@@H](CCC(=O)O)C(=O)N[C@@H](CCC(N)=O)C(=O)N[C@@H](C)C(=O)N[C@@H](CCC(=O)O)C(=O)N[C@H](C(=O)N[C@@H](CC(N)=O)C(=O)N[C@@H](CCCCN)C(=O)N[C@@H](CCC(N)=O)C(=O)N[C@H](C(=O)N[C@@H](CC(C)C)C(=O)N[C@@H](C)C(=O)N[C@@H](CCC(N)=O)C(=O)N[C@H](C(N)=O)C(C)C)[C@@H](C)CC)[C@@H](C)O)[C@@H](C)CC)C(C)C)C(C)C
In the case of B5, the EC50 [nM], 0% HSA was found to be 25 nM.

B6: SEQ ID NO: 91 (peptide)
peptide: IVLSLDVPIKLK([AEEA-AEEA-γGlu-C18 diacid])QKLLKQERQKKQREKAKTN[Aib]QILAQV-NH2
modifications: N-terminus assumed
SMILES: CC[C@H](C)[C@H](N)C(=O)N[C@H](C(=O)N[C@@H](CC(C)C)C(=O)N[C@@H](CO)C(=O)N[C@@H](CC(C)C)C(=O)N[C@@H](CC(=O)O)C(=O)N[C@H](C(=O)N1CCC[C@H]1C(=O)N[C@H](C(=O)N[C@@H](CCCCN)C(=O)N[C@@H](CC(C)C)C(=O)N[C@@H](CCCCNC(=O)COCCOCCNC(=O)COCCOCCNC(=O)CC[C@H](NC(=O)CCCCCCCCCCCCCCCCC(=O)O)C(=O)O)C(=O)N[C@@H](CCC(N)=O)C(=O)N[C@@H](CCCCN)C(=O)N[C@@H](CC(C)C)C(=O)N[C@@H](CC(C)C)C(=O)N[C@@H](CCCCN)C(=O)N[C@@H](CCC(N)=O)C(=O)N[C@@H](CCC(=O)O)C(=O)N[C@@H](CCCNC(=N)N)C(=O)N[C@@H](CCC(N)=O)C(=O)N[C@@H](CCCCN)C(=O)N[C@@H](CCCCN)C(=O)N[C@@H](CCC(N)=O)C(=O)N[C@@H](CCCNC(=N)N)C(=O)N[C@@H](CCC(=O)O)C(=O)N[C@@H](CCCCN)C(=O)N[C@@H](C)C(=O)N[C@@H](CCCCN)C(=O)N[C@H](C(=O)N[C@@H](CC(N)=O)C(=O)NC(C)(C)C(=O)N[C@@H](CCC(N)=O)C(=O)N[C@H](C(=O)N[C@@H](CC(C)C)C(=O)N[C@@H](C)C(=O)N[C@@H](CCC(N)=O)C(=O)N[C@H](C(N)=O)C(C)C)[C@@H](C)CC)[C@@H](C)O)[C@@H](C)CC)C(C)C)C(C)C
The molecule B6 came in with an EC50 [nM], 0% HSA of 14.3 nM.
